# In the DeepSol protein solubility set:
# Experiment: soluble on expression in E. coli; label from the status in PepcDB or PDB records
row,Sequence,soluble on expression in E. coli
1,MGSDKIHHHHHHMSNGGRLVSQLEAEGSTHLTLPIHKKSLSSLWQIRPLRQLIEEHQPDIVHVRSRVPAWLTHFALRKIPANKRPHLISTVHGFYSVNRYSAIMTQAEKVIAVSDSVVKYITDHYKNCPPQDIVRIYRGIDPAAFPHNYQPSAQWFNQVFNDFPELENKFLLCLPGRITRLKGHESLIELMQQLHSQYPQLHAVIVGGADVKKQAYLSELQNTIQSKGLADKITFVGHRSDIREWLAFSDIVLSLSNQAETFGRTALEALSVGTPVIGWNRGGVAEILSHVYPQGLVEAENEKALLETVKHHIEQPQTVAPVTMFSLKDMCDQTLELYQSVLN,not soluble
2,MAHHHHHHMSSPFFGEQRKTRHNRSCSSCDSLPRYAASPPCHPQYAKVDRAAPSVSSPTFSSVPPSPKFPALCMHAMSHTNSTVPSSKLPFSNSVTGNGAALIGTLASFDSEAPRGRPASVAEDGAASGSSSGLSRAAVLMSGRGDASPPFSPQPSGSVLAVFCPLTSKAWQSGTLRDGIAFDVDTTSKVSTISPQTGLQSPLLFSSGWSQQSVSAAAQGTPPSFMGTPGQSLISAGAEGDDAEDTPHSCGAMYSPNHSVSLLPAPKVFVSVYPVQSPEPFATKFTGSPVFEVSLTTPPSIRAPQTGAARGAGATPAPSSRLPSESLEQYSLLRSPILHSLTPLSISPSAPLSPGFGCITGTEPMQSRLSRHRLATSAGSEQLPVRTSNDMRSRNAAVASPPPAAVPSVNSNHESLSDRLVSPARRSYRCPLPSSNEASLSSFFAVDDAGLHANLSMTQASEEDAAHRAASATLPRVCSSKDTEAEEGVAAALAPDTTDDPFEAFWDISPAAQWGGSVTEMLPRITTSSAPFETGSASRSVTAFASGTHEKDSHSSEEFNQNNRLSCVSMERHRNTILHRPSAAQQRNTILHRPSVVQQRNSVNRSVDTQRTTSKTMTLQQRQRRFSLQQEDSIEIKRRSYA,not soluble
3,MIPPEIRRSVLLQKAIKLALAGTLLTFASFSATAADPSSDTETPQPPDILLGPLFNDVQNAKLFPDQKTFADAIPNSDPLMILADYRMQRNQSGFDLRHFVDVNFTLPKAGEKYVPPAGQSLREHIDGLWPVLTRSTKNVEKWDSLLPLPESYVVPGGRFREIYYWDSYFTMLGLAESGHWDKVADMVANFGYEIDAWGHIPNGNRTYYLSRSQPPFFAFMVELLAQHEGDDALKEYLPQLQKEYAYWMEGVETLQPGQQNQRVVKLEDGSVLNRYWDDRDTPRPESWVEDIATAKSNPNRPATEIYRDLRSAAASGWDFSSRWMDNPQQLSTIRTTTIVPVDLNALLYQLEKTLARASAAAGDRAKASQYDALANARQKAIEMHLWNNKEGWYADYDLQNNKIRDQLTAAALFPLYVNAAAKDRAVKVAAAAQAHLLQPGGLATTSVKSGQQWDAPNGWAPLQWVAAEGLQNYGQDDVAMEVTWRFLTNVQHTYDREKKLVEKYDVSSTGTGGGGGEYPLQDGFGWTNGVTLKMLDLICPQEKPCDSVPSTRPASLSATPTKTPSAATQLEHHHHHH,not soluble
4,MHHHHHHSSGRENLYFQGPQDLMVTCTAPVNIAVIKYWGKRDEALILPINSSLSVTLHQDQLKTTTTVAISKDFTEDRIWLNGREEDVGQPRLQACLREIRRLARKRRSTEDGDTLPLSLSYKVHVASVNNFPTAAGLASSAAGYACLAYTLAQVYGVEGDLSEVARRGSGSACRSLYGGFVEWQMGEQADGKDSIARQIAPEWHWPQLRILILVVSADKKQTGSTVGMQTSVETSTLLKFRAESVVPERMKEMTRCIQEQDFQGFAQLTMKDSNQFHATCLDTFPPISYLNDTSRRIIQLVHRFNTHHGQTKVAYTFDAGPNAVIFTLEDTVAEFVAAVRHSFPPAANGDKFLKGLQVAPVLLSDELKAALVVEPSPGGVQYIIATQVGPGPQVLDDTHDHLLGQDGLPQRDL,soluble
5,MVVTCPKCGAKNRLGTPPPGQVPVCGACKTPLPWVVEADEKGFAQEVAGAPLTLVDFFAPWCGPCRLVSPILEELARDHAGRLKVVKVNVDEHPGLAARYGVRSVPTLVLFRRGAPVATWVGASPRRVLEERLRPYLEGR,soluble
6,MKAKREALISLFHAIKEEKVDSDIIDLLLLINSIKGIYTTSSCSGRIGILEEPSLGAKPLSRWLIKVHRPMSFEEARDALKRAREGLIFLKSQPPIFHVVAETIENAKLVHEIGLASGFKYTTFKAISSRFLVEINGTEYLTVPLGKDGRIIASDEYLKFAISIGNKMLERGKSKLPRLRDNFEKIKKKLGEDPLFIQLKREILEI,soluble
7,MYIPNAFRESDTHNLQEHMDKTRLAILVTQGDDGLHATHLPLLLRSDEGPYGTLYGHMAKANPQWQQLNADAEAMVIFPGEDAYVSPSFYPSKAEHGKVVPTWNYLAVHAYGQAECFTDPDRLHQLLNDLTDRHESSRAQPWSINDAPADYIAKMLGAIVGFSIPVQRLQGKRKLSQNRSAEDMAGVRDGLGASHLANDQQIARLMSGWRPS,not soluble
8,MKELHTSELVEVSGGKFHIFAQGGGNLGKKDMVAVGKIGASYSPNNSGVEFSVSKQFGYVQGLGVQFSKPTFGISKKW,not soluble
9,MSLTIFTKERKLLLAVESSCDETSVAVIEDGDKILSNIVASQIKSHQRFGGVVPEVASRHHVEQVTICIEEALTEAKVTPEELSGVAVTYGPGLVGALLIGLSAAKAFAWAHQLPLIPVNHMAGHIYAARFVAPLEFPLMALLVSGGHTELVYMKEDGSFEIVGETRDDAAGEAYDKVGRVLGLPYPSGKEIDALAHEGTDTYQFPRAMLKEDNYDFSFSGLKSAFINTVHNAEQRGEALSTKDLAASFQASVVEVLVTKTIRACQEYPVKQLLIAGGVAANQGLREAMRHAISEQLPAVTLLIPPLKLCGDNAAMIGAAAFIEAEKNHFASYNLNAEPGVSFMTISEEGEGHHHHHH,soluble
10,MQIQQNNSLIYNTLTKKLSSFIPIKSTRRKLRNHIQYKLEHPKVTNYLSNNYINPFLEGKIPHFDFEKKHYFKNDKIIWQFWYQGKNQASPMIQQCFNSVQSQMKDDYTIIILDKDNIKDYLDFPPFVIEKLENNFFGEKTITFFSDLLRVCLLATYGGIWCDASIFLSSKIPSELCDKDFFTFERSKIKPSKEKLKKFIKSGYFSYGYFNWNDDFKVKMLSSFMIAKTNNTFIQTLKDILMNYWKNEQSSENHYYFILHIIFELLKEHGFVNDIYKNMSDIECHLLQFSAKEKFNSTLWEEIQKQSFLHKLTHFKSIKKDSMIDKIILQSLEHHHHHH,soluble
11,VVELPKTDEGLGFNIMGGKEQNSPIYISRVIPGGVADRHGGLKRGDQLLSVNGVSVEGEQHEKAVELLKAAQGSVKLVVR,soluble
12,FHLTTRNGEPHMIVSRQEKGKSLLFKTEDGVNMCTLMAMDLGELCEDTITYKCPLLRQNEPEDIDCWCNSTSTWVTYGTCT,soluble
13,MAHHHHHHMSVPLRRTVLHSLHLSRKARMGPFAGYDMPIHYQPGVVQEHLHTRQAAGLFDVSHVGFFEVWGADRHKFFEWVTPSGVTELQDGQSALTLFMNESGGVKDDCIVSKYSDHLLAVINAGCKGKIITHLKDRLAEFKGDATLVELDRAMVSLQGPKAASVMAPFVEELDRVKFMWGRRSVCVKGIDITLTRCSYSGEDGFDIIVPIQDAVQFVELLLQNPDVQLAGLGARDSLRTEAGLCLYSHELSEEVNPVAARLMWCIPKRRMAEGGFIGHERLQTFVQRAKELVPRLRMGILSVARGPVARTGMPILVGDVVVGEVTSGVPSPTLSRNIAIGYIDRAKARAGETVELEVRGKRLPGEVTLPRFVPQRYYKG,not soluble
14,STGQGQSASGSSAWSTVFRHVRYENLIAGVSGGVLSNLALHPLDLVKIRFAVSDGLELRPKYNGILHCLTTIWKLDGLRGLYQGVTPNIWGAGLSWGLYFFFYNAIKSYKTEGRAERLEATEYLVSAAEAGAMTLCITNPLWVTKTRLMLQYDAVVNSPHRQYKGMFDTLVKIYKYEGVRGLYKGFVPGLFGTSHGALQFMAYELLKLKYNQHINRLPEAQLSTVEYISVAALSKIFAVAATYPYQVVRARLQDQHMFYSGVIDVITKTWRKEGVGGFYKGIAPNLIRVTPACCITFVVYENVSHFLLDLREKRK,soluble
15,MSGKEPLNPNPVIASGRKCRLKDSSDGIFRKGRDALEKTAFQAGILFARQRGGIGRAGKRTGGGSFMPSESPPLRLFAKKVGKGTYNPVQSSINI,not soluble
